Test [1] has as its target T1, Recombinant Human Fc gamma RIIIB/CD16b Protein (R&D Systems), His-tagged (human, UniProt O75015 20-208).
T1 construct: also called human FcγRIIIb; hFcγRIIIb
T1 chain: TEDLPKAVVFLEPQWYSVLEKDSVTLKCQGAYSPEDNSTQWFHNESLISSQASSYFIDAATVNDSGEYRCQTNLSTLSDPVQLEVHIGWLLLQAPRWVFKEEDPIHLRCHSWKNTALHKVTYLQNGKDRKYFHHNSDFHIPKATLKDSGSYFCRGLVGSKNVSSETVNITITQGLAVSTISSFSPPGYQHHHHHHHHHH
The test is described as follows: SPR (Biacore T200); receptor immobilized directly on CM5 chip, antibody as analyte at 4.7 µM.

In test [2] the target is T2, human FcRn (human neonatal Fc receptor large subunit p51 and beta2-microglobulin), biotinylated (human, UniProt P55899 24-297; P61769 21-119, biotinylated (site not stated)). In words: BLI (Octet RED384), biotinylated FcRn on streptavidin biosensor, binding and dissociation at pH 6.0.
The target of test [3] is T2, human FcRn (human neonatal Fc receptor …). The test is described as follows: BLI (Octet RED384), biotinylated FcRn on streptavidin biosensor, binding at pH 6.0, dissociation at pH 7.4.
Test [4] has as its target T3, Recombinant Human Fc gamma RIIB/C (CD32b/c) Protein (R&D Systems), His-tagged (human, UniProt P31994 46-217).
T3 construct: also called human FcγRIIb/c; hFcγRIIb/c
T3 sequence: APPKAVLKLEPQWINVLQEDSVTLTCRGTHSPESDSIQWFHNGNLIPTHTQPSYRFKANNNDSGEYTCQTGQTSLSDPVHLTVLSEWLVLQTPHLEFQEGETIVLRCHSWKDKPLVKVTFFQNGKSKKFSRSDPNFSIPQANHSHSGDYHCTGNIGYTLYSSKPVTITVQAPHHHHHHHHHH
In words: SPR (Biacore T200); receptor immobilized directly on CM5 chip, antibody as analyte at 4.7 µM.

The target of test [5] is T4, Recombinant Human Fc gamma RIIA/CD32a (H167) Protein (R&D Systems), His-tagged (human, UniProt P12318 34-218).
T4 construct: also called human FcγRIIa (H167); hFcγRIIa (H167)
T4 sequence: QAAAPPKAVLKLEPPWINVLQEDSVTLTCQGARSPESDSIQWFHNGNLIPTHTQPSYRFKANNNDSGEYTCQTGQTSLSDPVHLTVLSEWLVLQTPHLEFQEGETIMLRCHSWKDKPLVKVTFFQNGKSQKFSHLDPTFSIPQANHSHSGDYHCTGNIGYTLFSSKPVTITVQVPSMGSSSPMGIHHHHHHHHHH
The test is described as above.

Test [6] addresses T5, Recombinant Human Fc gamma RIIIA/CD16a protein (R&D Systems), His-tagged (human, UniProt P08637 17-208).
T5 construct: also called human FcγRIIIa; hFcγRIIIa
The description is as above.

The target of test [7] is T6, Recombinant Human Fc gamma RIIIA/CD16a (V176F) Protein (R&D Systems), His-tagged (human, UniProt P08637 17-208).
T6 construct: no further substitution applied; also called human FcγRIIIa (V176F); hFcγRIIIa (V176F)
Described as above.

Test [8] concerns the target T1, Recombinant Human Fc gamma RIIIB/CD16b …. The test is described as above.
Test [9] addresses T7, Recombinant Cynomolgus Monkey Fc gamma RI/CD64 Protein, CF (R&D Systems), His-tagged (cynomolgus, UniProt P12314 11-288 (human entry)).
T7 construct: also called cynomolgus FcγRI; cFcγRI
T7 chain: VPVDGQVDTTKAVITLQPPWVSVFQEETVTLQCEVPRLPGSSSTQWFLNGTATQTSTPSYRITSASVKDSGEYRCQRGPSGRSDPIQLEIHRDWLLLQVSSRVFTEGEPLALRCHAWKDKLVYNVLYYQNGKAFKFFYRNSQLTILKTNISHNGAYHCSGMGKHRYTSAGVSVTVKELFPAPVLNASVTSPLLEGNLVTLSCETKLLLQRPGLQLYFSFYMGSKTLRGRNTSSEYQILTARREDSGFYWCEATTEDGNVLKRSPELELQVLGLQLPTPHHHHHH
The test is described as follows: SPR (Biacore T200), RU at 4.7 µM antibody.

Test [10] concerns the target T8, Recombinant Cynomolgus Fc gamma RIII/CD16 Protein (R&D Systems), His-tagged (cynomolgus, UniProt Q8SPW2 17-208).
T8 construct: also called cynomolgus FcγRIII; cFcγRIII
T8 chain: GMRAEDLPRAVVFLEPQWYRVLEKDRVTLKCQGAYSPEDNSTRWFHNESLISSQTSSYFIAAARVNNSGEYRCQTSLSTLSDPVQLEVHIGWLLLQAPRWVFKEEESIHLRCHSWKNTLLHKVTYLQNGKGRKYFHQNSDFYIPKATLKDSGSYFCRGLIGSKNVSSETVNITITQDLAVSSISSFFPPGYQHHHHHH
The test is described as follows: SPR (Biacore T200); receptor immobilized directly on CM5 chip, antibody as analyte at 4.7 µM.

For test [11], the target named is T9, Recombinant Cynomolgus Fc gamma RIIA/CD32a Protein (R&D Systems), His-tagged (cynomolgus).
T9 construct: also called cynomolgus FcγRIIa; cFcγRIIa
T9 chain: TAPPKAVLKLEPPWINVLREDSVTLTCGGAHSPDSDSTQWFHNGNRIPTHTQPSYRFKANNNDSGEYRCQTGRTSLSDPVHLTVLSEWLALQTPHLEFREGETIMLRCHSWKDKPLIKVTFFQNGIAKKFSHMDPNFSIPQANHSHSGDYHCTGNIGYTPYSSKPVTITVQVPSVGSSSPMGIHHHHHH
The test is described as above.

The target of test [12] is T10, Recombinant Cynomolgus Fc gamma RIIB protein (R&D Systems), His-tagged (cynomolgus).
T10 construct: also called cynomolgus FcγRIIb; cFcγRIIb
T10 chain: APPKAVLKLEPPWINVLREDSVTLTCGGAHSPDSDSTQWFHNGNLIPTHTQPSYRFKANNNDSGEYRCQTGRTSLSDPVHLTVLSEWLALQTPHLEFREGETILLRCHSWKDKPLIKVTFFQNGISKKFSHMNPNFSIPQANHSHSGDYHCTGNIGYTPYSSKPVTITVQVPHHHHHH
The test is described as above.

Test [13] has as its target T3, Recombinant Human Fc gamma RIIB/C …. The description is as above. The source holds these as a separate data set.
In test [14] the target is T4, Recombinant Human Fc gamma RIIA/CD32a …. The description is as above. This is another data set of the same source.
The target in test [15] is T5, Recombinant Human Fc gamma RIIIA/CD16a …. The test is described as above. The source holds these as a separate data set.
Test [16] deals with T6, Recombinant Human Fc gamma RIIIA/CD16a …. The description is as above. This is another data set of the same source.
The target in test [17] is T1, Recombinant Human Fc gamma RIIIB/CD16b …. Described as above.
Test [18] addresses T7, Recombinant Cynomolgus Monkey Fc gamma …. The test is described as follows: SPR (Biacore T200); His-tagged receptor captured on anti-His antibody chip, antibody as analyte at 4.7 µM.
The target in test [19] is T8, Recombinant Cynomolgus Fc gamma …. In words: SPR (Biacore T200); receptor immobilized directly on CM5 chip, antibody as analyte at 4.7 µM.
For test [20], the target named is T9, Recombinant Cynomolgus Fc gamma …. Described as above.
For test [21], the target named is T10, Recombinant Cynomolgus Fc gamma RIIB …. The test is described as above.

Substitutions are numbered along the chain they refer to. Names may count otherwise. Read-outs that look alike come from different tables or passages of the source.

Here are results for five molecules from US20240239915A1 (Zymeworks, published 2024).

T5 sequence (P08637 other isoform, or with tags, fused parts or gaps): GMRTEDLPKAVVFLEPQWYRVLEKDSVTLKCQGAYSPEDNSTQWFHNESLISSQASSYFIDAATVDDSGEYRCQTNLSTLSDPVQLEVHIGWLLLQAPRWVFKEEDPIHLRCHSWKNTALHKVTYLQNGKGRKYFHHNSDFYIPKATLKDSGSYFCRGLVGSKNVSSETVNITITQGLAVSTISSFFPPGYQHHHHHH
T6 sequence (P08637 other isoform, or with tags, fused parts or gaps V176F V176F): as the sequence (P08637 other isoform, or with tags, fused parts or gaps) above, with V160F counted along it
T2 sequence (P55899 24-297 limits assumed, chain 1 of 2): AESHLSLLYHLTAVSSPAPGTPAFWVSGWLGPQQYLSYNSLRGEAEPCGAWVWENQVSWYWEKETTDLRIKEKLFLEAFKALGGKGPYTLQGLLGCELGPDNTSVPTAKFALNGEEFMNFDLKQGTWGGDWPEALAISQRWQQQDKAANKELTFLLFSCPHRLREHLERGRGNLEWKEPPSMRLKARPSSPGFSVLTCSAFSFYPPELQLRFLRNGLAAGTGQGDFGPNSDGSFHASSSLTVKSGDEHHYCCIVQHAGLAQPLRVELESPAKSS
T2 sequence (P61769 21-119 limits assumed, chain 2 of 2): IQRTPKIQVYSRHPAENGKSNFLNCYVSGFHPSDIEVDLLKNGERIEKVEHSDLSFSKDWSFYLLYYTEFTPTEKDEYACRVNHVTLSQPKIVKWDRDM

B1: LALA variant of the anti-LPS antibody O11-1111 (IgG1) (antibody)
heavy: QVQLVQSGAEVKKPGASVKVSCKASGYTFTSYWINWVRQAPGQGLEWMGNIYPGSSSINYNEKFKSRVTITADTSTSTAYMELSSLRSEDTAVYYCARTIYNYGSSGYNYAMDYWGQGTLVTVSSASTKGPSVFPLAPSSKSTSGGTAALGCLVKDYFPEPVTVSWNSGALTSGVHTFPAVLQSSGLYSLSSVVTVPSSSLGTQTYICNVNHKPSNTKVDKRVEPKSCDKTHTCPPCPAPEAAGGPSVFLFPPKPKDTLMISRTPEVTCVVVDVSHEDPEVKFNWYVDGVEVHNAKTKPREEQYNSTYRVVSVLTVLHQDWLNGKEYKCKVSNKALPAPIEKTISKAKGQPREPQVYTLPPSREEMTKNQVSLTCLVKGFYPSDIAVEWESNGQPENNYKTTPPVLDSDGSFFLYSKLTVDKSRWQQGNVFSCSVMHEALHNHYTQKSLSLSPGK
light: DIVMTQSPDSLAVSLGERATINCKASENVGNSVSWYQQKPGQPPKLLIYGASNRYTGVPDRFSGSGSGTDFTLTISSLQAEDVAVYYCGQSYSYPYTFGQGTKVEIKRTVAAPSVFIFPPSDEQLKSGTASVVCLLNNFYPREAKVQWKVDNALQSGNSQESVTEQDSKDSTYSLSSTLTLSKADYEKHKVYACEVTHQGLSSPVTKSFNRGEC
notes: LALA substitutions in EU numbering; also called Anti-LPS Antibody LALA
Take B1: in [1], the “binding response (RU)” value was -1.4 RU.

B2: L234A/L235A/D265G/P329A (LALA-DGPA) variant of IgG1 WT of the anti-EGFR antibody panitumumab (antibody)
heavy: QVQLQESGPGLVKPSETLSLTCTVSGGSVSSGDYYWTWIRQSPGKGLEWIGHIYYSGNTNYNPSLKSRLTISIDTSKTQFSLKLSSVTAADTAIYYCVRDRVTGAFDIWGQGTMVTVSSASTKGPSVFPLAPSSKSTSGGTAALGCLVKDYFPEPVTVSWNSGALTSGVHTFPAVLQSSGLYSLSSVVTVPSSSLGTQTYICNVNHKPSNTKVDKRVEPKSCDKTHTCPPCPAPEAAGGPSVFLFPPKPKDTLMISRTPEVTCVVVGVSHEDPEVKFNWYVDGVEVHNAKTKPREEQYNSTYRVVSVLTVLHQDWLNGKEYKCKVSNKALAAPIEKTISKAKGQPREPQVYTLPPSREEMTKNQVSLTCLVKGFYPSDIAVEWESNGQPENNYKTTPPVLDSDGSFFLYSKLTVDKSRWQQGNVFSCSVMHEALHNHYTQKSLSLSPGK
light: not shown
notes: Positions are EU numbers
As for B2, the equilibrium dissociation constant (Kd) in test [2] turned out to be 5 nM. In addition, the dissociation rate constant (koff) in test [3] is 2.3 s⁻¹.

B3: L234A/L235A/D265Q (LALA-DQ) variant of IgG1 WT of the anti-EGFR antibody panitumumab (antibody)
heavy: B2 heavy with G267Q, A331P
light: not shown
notes: Mutations in both CH2 domains; positions are EU numbers
B3: the “binding response (RU)” value is 15 RU in [4]; 34 RU in test [5]; -2.1 RU in test [6]; -3.5 RU in [7]; -0.6 RU in test [8]; 3.5 RU in test [10]. For the same molecule, the “binding response (RU)” value in test [11] is 22 RU; in test [12] it was 89 RU. For the same molecule, the “RU value relative to the LALA-DA variant” value in test [9] was not below 1.4 fold.

B4: L234A/L235A/D265N (LALA-DN) variant of IgG1 WT of the anti-EGFR antibody panitumumab (antibody)
heavy: B2 heavy with G267N, A331P
light: not shown
notes: as for B3
For B4, the “binding response (RU)” value in [4] is 14 RU; in test [5], 21 RU; in test [6] it was -3.3 RU; in test [7], -5 RU; in [8] it was -1 RU; in test [10], 3.1 RU. Further, the “binding response (RU)” value in [11] was 19 RU; in test [12] it was 85 RU.

B5: L234A/L235A/P329G (LALA-PG) variant of IgG1 WT of the anti-EGFR antibody panitumumab (antibody)
heavy: B2 heavy with G267D, A331G
light: not shown
notes: as for B3
For B5, the “binding response (RU)” value in test [13] was 19 RU; in test [14], 19 RU; in test [15], -0.7 RU; in test [16], -0.8 RU; in [17], -0.4 RU; in [18] it was 1300 RU. Moreover, the “binding response (RU)” value in test [19] worked out at 10 RU; in [20] it was 23 RU; in [21] it was 110 RU.
